From US20260217833A1 (APTEVO RESEARCH AND DEVELOPMENT, published 2026)
Where two headings read alike, the source gives them in different places.

Tests used:
[1] = biological target: T1, Human PD-L1 full-length (human, UniProt Q9NZQ7 19-290); test: flow cytometry, CHOK1SV/human PD-L1 cells
T1 construct: also called PDL01021; CHOK1SV/huPDL1

[2] = biological target: T2, human CD40 full-length (human, UniProt P25942 21-277); test: flow cytometry, CHOK1SV/human CD40 cells
T2 construct: Also used for CD40 of Daudi cells, of CD40-expressing HEK293 cells and of the BPS CD40/NFkB HEK293 reporter cells where the row says so; also called CD4001012; CHOK1SV/CD40

[3] = biological target: T3, human CD40 ECD- HAC tag (human); test: SPR, binder captured on anti-human IgG, monomeric CD40 ECD injected, 1:1 fit
T3 construct: also called CD4001006; recombinant monomeric human CD40 ectodomain (ECD)

[4] = biological target: T2, human CD40 full-length; test: flow cytometry, CHOK1SV/human CD40 cells; remark: listed apart in the source

T1 sequence (Q9NZQ7 19-290): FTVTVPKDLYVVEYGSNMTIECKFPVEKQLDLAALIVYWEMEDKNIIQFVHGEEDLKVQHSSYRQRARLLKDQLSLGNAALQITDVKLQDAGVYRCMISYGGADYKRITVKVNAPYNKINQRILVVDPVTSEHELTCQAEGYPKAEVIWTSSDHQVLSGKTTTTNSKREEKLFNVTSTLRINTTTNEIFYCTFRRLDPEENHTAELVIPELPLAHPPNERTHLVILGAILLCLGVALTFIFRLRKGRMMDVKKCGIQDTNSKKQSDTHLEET

| binding result [1] | EC50 (read off the curve) [2] [nM] | binding result [2] | Binder | further results |
| --- | --- | --- | --- | --- |
| binds | ~5 | – | CD4001068 (bispecific antibody) PDL_5F9 x Fc-Knob: EVQLVESGGGLVKPGGSLRLSCAASGFTFSDYGMAWVRQAPGKGLEWVAFITSLAYIIYYADSVKGRFTISRDNAKNSLYLQMNSLRAEDTAVYYCARNYGSSPYYFDYWGQGTLVTVSSGGGGSGGGGSGGGGSGGGGSDIQMTQSPSSLSASVGDRVTITCRASQDINKFLSWYQQKPGKAPKLLIHYTSSLQPGVPSRFSGSGSGTDFTLTISSLQPEDFATYYCLQYDNLYTFGQGTKLEIKEPKSSDKTHTCPPCPAPPAAAPSVFLFPPKPKDTLMISRTPEVTCVVVDVSHEDPEVKFNWYVDGVEVHNAKTKPREEQYNSTYRVVSVLTVLHQDWLNGKEYKCAVSNKALPAPIEKTISKAKGQPREPQVYTLPPSRDELTKNQVSLWCLVKGFYPSDIAVEWESNGQPENNYKTTPPVLDSDGSFFLYSKLTVDKSRWQQGNVFSCSVMHEALHNHYTQKSLSLSPG CD40_5B9 x Fc-Hole: DVVMTQTPLSLPVSLGDQASISCRSSQSLVHYNGYTYLHWYLQKPGQSPKLLIYKVSNRFSGVPDRFSGSGSGTDFTLKISRVEAEDLGVYFCSQTTHVPLTFGAGTKLELRGGGGSGGGGSGGGGSGGGGSEVMLVESGGGLVKPGGSLKLSCAASGFTFSSYAMSWVRQTPERRLEWVASISSAGTYIYYPDSVKGRFTISRDNAKNILYLQMNSLRSEDTAMYYCARHGNGYDPLWYFDVWGAGTTVTVSSEPKSSDKTHTCPPCPAPPAAAPSVFLFPPKPKDTLMISRTPEVTCVVVDVSHEDPEVKFNWYVDGVEVHNAKTKPREEQYNSTYRVVSVLTVLHQDWLNGKEYKCAVSNKALPAPIEKTISKAKGQPREPQVYTLPPSRDELTKNQVSLSCAVKGFYPSDIAVEWESNGQPENNYKTTPPVLDSDGSFFLVSKLTVDKSRWQQGNVFSCSVMHEALHNRFTQKSLSLSPG | – |
| binds | – | binds | CD4001065 (PDL_5F9 x hFc x CD40_5B9) (bispecific antibody, ADAPTIR format, anti-PD-L1 scFv on N-terminus, anti-CD40 scFv on C-terminus; also called CD4001065 (5B9)) EVQLVESGGGLVKPGGSLRLSCAASGFTFSDYGMAWVRQAPGKGLEWVAFITSLAYIIYYADSVKGRFTISRDNAKNSLYLQMNSLRAEDTAVYYCARNYGSSPYYFDYWGQGTLVTVSSGGGGSGGGGSGGGGSGGGGSDIQMTQSPSSLSASVGDRVTITCRASQDINKFLSWYQQKPGKAPKLLIHYTSSLQPGVPSRFSGSGSGTDFTLTISSLQPEDFATYYCLQYDNLYTFGQGTKLEIKEPKSSDKTHTCPPCPAPPAAAPSVFLFPPKPKDTLMISRTPEVTCVVVDVSHEDPEVKFNWYVDGVEVHNAKTKPREEQYNSTYRVVSVLTVLHQDWLNGKEYKCAVSNKALPAPIEKTISKAKGQPREPQVYTLPPSRDELTKNQVSLTCLVKGFYPSDIAVEWESNGQPENNYKTTPPVLDSDGSFFLYSKLTVDKSRWQQGNVFSCSVMHEALHNHYTQKSLSLSPGGGGSPSDVVMTQTPLSLPVSLGDQASISCRSSQSLVHYNGYTYLHWYLQKPGQSPKLLIYKVSNRFSGVPDRFSGSGSGTDFTLKISRVEAEDLGVYFCSQTTHVPLTFGAGTKLELRGGGGSGGGGSGGGGSGGGGSEVMLVESGGGLVKPGGSLKLSCAASGFTFSSYAMSWVRQTPERRLEWVASISSAGTYIYYPDSVKGRFTISRDNAKNILYLQMNSLRSEDTAMYYCARHGNGYDPLWYFDVWGAGTTVTVSS | – |

Continued, binder first:

| Binder | binding result [1] | EC50 (read off the curve) [2] [nM] | binding result [2] | further results |
| --- | --- | --- | --- | --- |
| CD4001048 (bispecific antibody, also called CD40_5B9 x hFc x PDL_5F9) scFv-Fc-scFv chain: DVVMTQTPLSLPVSLGDQASISCRSSQSLVHYNGYTYLHWYLQKPGQSPKLLIYKVSNRFSGVPDRFSGSGSGTDFTLKISRVEAEDLGVYFCSQTTHVPLTFGAGTKLELRGGGGSGGGGSGGGGSGGGGSEVMLVESGGGLVKPGGSLKLSCAASGFTFSSYAMSWVRQTPERRLEWVASISSAGTYIYYPDSVKGRFTISRDNAKNILYLQMNSLRSEDTAMYYCARHGNGYDPLWYFDVWGAGTTVTVSSEPKSSDKTHTCPPCPAPPAAAPSVFLFPPKPKDTLMISRTPEVTCVVVDVSHEDPEVKFNWYVDGVEVHNAKTKPREEQYNSTYRVVSVLTVLHQDWLNGKEYKCAVSNKALPAPIEKTISKAKGQPREPQVYTLPPSRDELTKNQVSLTCLVKGFYPSDIAVEWESNGQPENNYKTTPPVLDSDGSFFLYSKLTVDKSRWQQGNVFSCSVMHEALHNHYTQKSLSLSPGGGGSPSEVQLVESGGGLVKPGGSLRLSCAASGFTFSDYGMAWVRQAPGKGLEWVAFITSLAYIIYYADSVKGRFTISRDNAKNSLYLQMNSLRAEDTAVYYCARNYGSSPYYFDYWGQGTLVTVSSGGGGSGGGGSGGGGSGGGGSDIQMTQSPSSLSASVGDRVTITCRASQDINKFLSWYQQKPGKAPKLLIHYTSSLQPGVPSRFSGSGSGTDFTLTISSLQPEDFATYYCLQYDNLYTFGQGTKLEIK | binds | – | binds | – |
| CD4001074 (bispecific antibody) CD40_5B9 x Fc-Knob: DVVMTQTPLSLPVSLGDQASISCRSSQSLVHYNGYTYLHWYLQKPGQSPKLLIYKVSNRFSGVPDRFSGSGSGTDFTLKISRVEAEDLGVYFCSQTTHVPLTFGAGTKLELRGGGGSGGGGSGGGGSGGGGSEVMLVESGGGLVKPGGSLKLSCAASGFTFSSYAMSWVRQTPERRLEWVASISSAGTYIYYPDSVKGRFTISRDNAKNILYLQMNSLRSEDTAMYYCARHGNGYDPLWYFDVWGAGTTVTVSSEPKSSDKTHTCPPCPAPPAAAPSVFLFPPKPKDTLMISRTPEVTCVVVDVSHEDPEVKFNWYVDGVEVHNAKTKPREEQYNSTYRVVSVLTVLHQDWLNGKEYKCAVSNKALPAPIEKTISKAKGQPREPQVYTLPPSRDELTKNQVSLWCLVKGFYPSDIAVEWESNGQPENNYKTTPPVLDSDGSFFLYSKLTVDKSRWQQGNVFSCSVMHEALHNHYTQKSLSLSPG CD40_5B9 x Fc-Hole x PDL_5F9: DVVMTQTPLSLPVSLGDQASISCRSSQSLVHYNGYTYLHWYLQKPGQSPKLLIYKVSNRFSGVPDRFSGSGSGTDFTLKISRVEAEDLGVYFCSQTTHVPLTFGAGTKLELRGGGGSGGGGSGGGGSGGGGSEVMLVESGGGLVKPGGSLKLSCAASGFTFSSYAMSWVRQTPERRLEWVASISSAGTYIYYPDSVKGRFTISRDNAKNILYLQMNSLRSEDTAMYYCARHGNGYDPLWYFDVWGAGTTVTVSSEPKSSDKTHTCPPCPAPPAAAPSVFLFPPKPKDTLMISRTPEVTCVVVDVSHEDPEVKFNWYVDGVEVHNAKTKPREEQYNSTYRVVSVLTVLHQDWLNGKEYKCAVSNKALPAPIEKTISKAKGQPREPQVYTLPPSRDELTKNQVSLSCAVKGFYPSDIAVEWESNGQPENNYKTTPPVLDSDGSFFLVSKLTVDKSRWQQGNVFSCSVMHEALHNRFTQKSLSLSPGGGGSPSEVQLVESGGGLVKPGGSLRLSCAASGFTFSDYGMAWVRQAPGKGLEWVAFITSLAYIIYYADSVKGRFTISRDNAKNSLYLQMNSLRAEDTAVYYCARNYGSSPYYFDYWGQGTLVTVSSGGGGSGGGGSGGGGSGGGGSDIQMTQSPSSLSASVGDRVTITCRASQDINKFLSWYQQKPGKAPKLLIHYTSSLQPGVPSRFSGSGSGTDFTLTISSLQPEDFATYYCLQYDNLYTFGQGTKLEIK | binds | ~2 | – | – |
| CD4001133 (Fc fusion, Tested as scFv on the N-terminus of a wildtype IgG1 Fc region; also called Humanized 5B9) VH: EVQLVESGGGLVQPGGSLRLSCAASGFTFSSYAMSWVRQAPGKGLEWVSAISSAGTYIYYADSVKGRFTISRDNSKNTLYLQMNSLRAEDTAVYYCARHGNGYDPLWYFDVWGQGTTVTVSS VL: DIQMTQSPSSLSASVGDRVTITCRASQSLVHYNGYTYLNWYQQKPGKAPKLLIYKVSNRFSGVPDRFSGSGSGTDFTLTISSLQPEDFATYYCQQTTHVPLTFGQGTKVEIK | – | – | – | Kd [3]: 85 nM; koff [3]: 0.019 s⁻¹; kon [3]: 230000 M⁻¹ s⁻¹; EC50 (read off the curve) [4]: ~7 nM |
| CD4001077 (bispecific antibody) PDL_5F9 x Fc-Knob: EVQLVESGGGLVKPGGSLRLSCAASGFTFSDYGMAWVRQAPGKGLEWVAFITSLAYIIYYADSVKGRFTISRDNAKNSLYLQMNSLRAEDTAVYYCARNYGSSPYYFDYWGQGTLVTVSSGGGGSGGGGSGGGGSGGGGSDIQMTQSPSSLSASVGDRVTITCRASQDINKFLSWYQQKPGKAPKLLIHYTSSLQPGVPSRFSGSGSGTDFTLTISSLQPEDFATYYCLQYDNLYTFGQGTKLEIKEPKSSDKTHTCPPCPAPPAAAPSVFLFPPKPKDTLMISRTPEVTCVVVDVSHEDPEVKFNWYVDGVEVHNAKTKPREEQYNSTYRVVSVLTVLHQDWLNGKEYKCAVSNKALPAPIEKTISKAKGQPREPQVYTLPPSRDELTKNQVSLWCLVKGFYPSDIAVEWESNGQPENNYKTTPPVLDSDGSFFLYSKLTVDKSRWQQGNVFSCSVMHEALHNHYTQKSLSLSPG PDL_5F9 x Fc-Hole x CD40_5B9: EVQLVESGGGLVKPGGSLRLSCAASGFTFSDYGMAWVRQAPGKGLEWVAFITSLAYIIYYADSVKGRFTISRDNAKNSLYLQMNSLRAEDTAVYYCARNYGSSPYYFDYWGQGTLVTVSSGGGGSGGGGSGGGGSGGGGSDIQMTQSPSSLSASVGDRVTITCRASQDINKFLSWYQQKPGKAPKLLIHYTSSLQPGVPSRFSGSGSGTDFTLTISSLQPEDFATYYCLQYDNLYTFGQGTKLEIKEPKSSDKTHTCPPCPAPPAAAPSVFLFPPKPKDTLMISRTPEVTCVVVDVSHEDPEVKFNWYVDGVEVHNAKTKPREEQYNSTYRVVSVLTVLHQDWLNGKEYKCAVSNKALPAPIEKTISKAKGQPREPQVYTLPPSRDELTKNQVSLSCAVKGFYPSDIAVEWESNGQPENNYKTTPPVLDSDGSFFLVSKLTVDKSRWQQGNVFSCSVMHEALHNRFTQKSLSLSPGGGGSPSDVVMTQTPLSLPVSLGDQASISCRSSQSLVHYNGYTYLHWYLQKPGQSPKLLIYKVSNRFSGVPDRFSGSGSGTDFTLKISRVEAEDLGVYFCSQTTHVPLTFGAGTKLELRGGGGSGGGGSGGGGSGGGGSEVMLVESGGGLVKPGGSLKLSCAASGFTFSSYAMSWVRQTPERRLEWVASISSAGTYIYYPDSVKGRFTISRDNAKNILYLQMNSLRSEDTAMYYCARHGNGYDPLWYFDVWGAGTTVTVSS | binds | – | binds | – |
